Measurements: paper PMC5457487, “Structural Basis for Mitotic Centrosome Assembly in Flies” (Cell, 2017)
Numbering of substitutions follows the chain as printed. Numbers in names are those of the source.

B1: MBP-PReM (domain or fragment, Drosophila melanogaster, UniProt P54623-2 403-608, looked up)
chain: QLQTEVKKKTANLQNLVNKELWEKNREVERLTKLLANQQKTLPQISEESAGEADLQQSFTEAEYMRALERNKLLQRKVDVLFQRLADDQQNSAVIGQLRLELQQARTEVETADKWRLECVDVCSVLTNRLEELAGFLNSLLKHKDVLGVLAADRRNAMRKAVDRSLDLSKSLNMTLNITATSLADQSLAQLCNLSEILYTEGDASH
notes: Centrosomin (Cnn), Drosophila, phospho-regulated multimerization (PReM) domain, aa403-608; also called MBP-PReM fusion; Cnn-PReM (aa403-608); source: E. coli B834 (DE3), purified (Ni-NTA, SEC); not shown: MBP, N-terminal, kept
B2: Cnn LZ (GPM-D490-L552) (domain or fragment, Drosophila melanogaster)
chain: GPMDQQNSAVIGQLRLELQQARTEVETADKWRLECVDVCSVLTNRLEELAGFLNSLLKHKDVLGVL
notes: source: E. coli, purified as complex with CM2; not shown: His6, N-terminal, cleaved; MBP, N-terminal, cleaved
B3: Cnn LZ WT (GPM-D490-K544) (domain or fragment, Drosophila melanogaster)
chain: GPMDQQNSAVIGQLRLELQQARTEVETADKWRLECVDVCSVLTNRLEELAGFLNSLLK
notes: Centrosomin (Cnn), Drosophila, LZ domain, aa490-544; Homo-tetramer alone in solution; a parallel homo-dimer in the 2:2 complex with CM2; also called LZ domain; leucine zipper; source: E. coli B834 (DE3), purified (Ni-NTA, SEC; tag cleaved with GST-3C protease, reverse Ni-NTA, SEC); not shown: His6, N-terminal, cleaved; MBP, N-terminal, cleaved
B4: LZ-L535E (domain or fragment, Drosophila melanogaster)
chain: B3 chain with L49E
notes: N-terminal residues as printed for the WT LZ construct of the same vector; Centrosomin (Cnn), Drosophila, LZ domain, aa490-544, L535E; also called LZ (aa490-544 L535E); Cnn_(490-544) L535E; source: E. coli B834 (DE3), purified; not shown: His6, N-terminal, cleaved; MBP, N-terminal, cleaved
B5: Cnn CM2 WT (GGS-H1082-L1148) (domain or fragment, Drosophila melanogaster)
chain: GGSHDCAKVDLENAELRRKLIRTKRAFEDTYEKLRMANKAKAQVEKDIKNQILKTHNVLRNVRSNMENEL
notes: GGS motif left at the N terminus after TEV cleavage; Centrosomin (Cnn), Drosophila, CM2 domain, aa1082-1148; The dimer holds a Zn2+ ion coordinated by H1082 and C1084; also called Cnn-motif 2 domain; Cnn_(1082-1148); source: E. coli C41 (DE3), purified (Ni-NTA, TEV cleavage, SEC); not shown: His-tagged lipoyl domain (Bacillus stearothermophilus dihydrolipoamide acetyltransferase), N-terminal, …
B6: CM2-L1137E (domain or fragment, Drosophila melanogaster)
chain: B5 chain with L59E
notes: GGS motif left after TEV cleavage, as told for the WT CM2 construct of the same vector; Centrosomin (Cnn), Drosophila, CM2 domain, aa1082-1148, L1137E; also called CM2 (aa1082-1148 L1137E); source: E. coli C41 (DE3), purified; not shown: His-tagged lipoyl domain (Bacillus stearothermophilus dihydrolipoamide acetyltransferase), N-terminal, cleaved
B7: CM2-I1126E (domain or fragment, Drosophila melanogaster)
chain: B5 chain with I48E
notes: GGS motif left after TEV cleavage, as told for the WT CM2 construct of the same vector; Centrosomin (Cnn), Drosophila, CM2 domain, aa1082-1148, I1126E; also called CM2 (aa1082-1148 I1126E); source: E. coli C41 (DE3), purified; not shown: His-tagged lipoyl domain (Bacillus stearothermophilus dihydrolipoamide acetyltransferase), N-terminal, cleaved
B8: CM2-T1133E (domain or fragment, Drosophila melanogaster)
chain: B5 chain with T55E
notes: GGS motif left after TEV cleavage, as told for the WT CM2 construct of the same vector; Centrosomin (Cnn), Drosophila, CM2 domain, aa1082-1148, T1133E; also called CM2 (aa1082-1148 T1133E); source: E. coli C41 (DE3), purified; not shown: His-tagged lipoyl domain (Bacillus stearothermophilus dihydrolipoamide acetyltransferase), N-terminal, cleaved

Columns and labels:
[1] = target: the molecule itself; experiment: SEC-MALS; Superose 6 column; MBP-PReM apo or with addition of CM2 WT or point mutants; 50 mM Tris-HCl pH7.5, 150 mM NaCl, 10 μM ZnCl2, 5 mM β-mercaptoethanol
[2] = target: B5; experiment: crystal structure; LZ:CM2 complexes of various LZ lengths and LZ-L535E:CM2; sitting drops, 21°C; conditions: both partners purified
[3] = target: the molecule itself; experiment: SEC-MALS; S75 10/300 column; 50 mM Tris-HCl pH7.5, 150 mM NaCl, 10 μM ZnCl2, 5 mM β-mercaptoethanol; proteins alone or mixed
[4] = target: B5; experiment: as above; conditions: both partners purified

| Binder | stoichiometry N [3] | also measured |
| --- | --- | --- |
| B1 |  | stoichiometry N [1]: 2 |
| B2 |  | binding result [2]: binds |
| B3 | 4 | stoichiometry N [4]: 1 LZ per CM2 (printed as 2:2) |
| B4 |  | stoichiometry N [4]: 1 LZ per CM2 (printed as 2:2) |
| B5 | 2 |  |
| B6 | 2 |  |
| B7 | 2 |  |
| B8 | 2 |  |
